Experimental findings from paper PMC9861546 are described below.

The target of experiment [1] is chimeric L1:P18I10 capsid protein (HPV16 L1 with the HIV-1 P18I10 peptide in the DE loop), VLPs (human papillomavirus type 16 | HIV-1) (UniProt P03101). Kind of experiment: cross-linking; disulfide cross-linking seen by non-reducing SDS-PAGE; VLPs in Laemmli sample buffer without or with 5% 2-mercaptoethanol, room temperature, 24 h; blot with anti-HPV16 L1 CAMVIR-1.
Experiment [2] has as its target chimeric L1:T20 capsid protein (HPV16 L1 with the HIV-1 T20 peptide in the DE loop), VLPs (human papillomavirus type 16 | HIV-1) (UniProt P03101). The experiment is described as above.

With “chimeric L1:P18I10 capsid protein (HPV16 L1 with the HIV-1 P18I10 peptide in the DE loop), VLPs (from UniProt P03101 1-129; P03101 137-505)”, in experiment [1], the percent of L1 disulfide bonded into dimers or pentamers came to 70%.

In experiment [2], “chimeric L1:T20 capsid protein (HPV16 L1 with the HIV-1 T20 peptide in the DE loop), VLPs (from UniProt P03101 1-129; P03101 137-505)” yielded a percent of L1 disulfide bonded into dimers or pentamers of 70%.
